{"source": "patent US20250276057A1", "binders": {"B1": {"name": "recombinant Cup s GRPb (protein)", "chain": "AQIDCDKECNRRCSKASLHDRCLKYCGICCEKCHCVPPGTAGNEDVCPCYAHLKNSKGGHKCP"}}, "molecular_target": "IgE antibodies in four Pru p 7 reactive human sera", "test": "ImmunoCAP IgE inhibition, inhibitor in solution at 20 ug/mL, rPru p 7 on solid phase"}
{"binder": "B1", "values": [{"measurement": "percent inhibition of IgE binding to rPru p 7 (fourth serum)", "result": 80, "unit": "%"}]}
